The source of these data is paper doi:10.1101/2024.10.29.620959.

Test [1] concerns the target FadD5(1-448), N-terminal domain construct of Mycobacterium tuberculosis FadD5 (Mycobacterium tuberculosis H37Rv). In words: SEC-MALS. (In gel filtration, larger molecules generally elute earlier.)
The target of test [2] is Mycobacterium tuberculosis FadD5 (fatty acyl-CoA synthetase, Rv0166), full length (Mycobacterium tuberculosis H37Rv). Nature of the test: SAXS.
The target is the same in test [3]. In words: native gel or EMSA. For orientation: Mobility shift assays separate free from complexed probe on a gel.
Test [4] has the same target. Nature of the test: SEC-MALS.

Turning to “FadD5(1-448), N-terminal domain construct of Mycobacterium tuberculosis FadD5 (domain or fragment)”, the stoichiometry N in test [1] was 2.

Consider “Mycobacterium tuberculosis FadD5 (fatty acyl-CoA synthetase, Rv0166), full length (enzyme)”, for which the stoichiometry N in test [2], in test [3] and in test [4] was 2 each time.

Usually stoichiometry N stands for the number of molecules, sites or subunits per partner or assembly.
